PMC11041768, “Broad sialic acid usage amongst species D human adenovirus” (npj Viruses, 2023)

Columns and labels:
[1] = target: T1, HAdV-D30 fiber-knob protein (Human adenovirus 30, UniProt M0QTV3); experiment: X-ray crystal structure of soaked crystal; assay type: binding; details: 10 mM soak; conserved apical pocket; mixture of alpha and beta anomers
T1 construct: gene L5; trimer

[2] = target: T2, HAdV-D25 fiber-knob protein (Human adenovirus 25, UniProt M0QUM1); experiment: X-ray crystal structure of soaked crystal; assay type: binding; details: 10 mM soak; conserved apical pocket; mixture of alpha and beta anomers
T2 construct: gene L5; trimer

[3] = target: T3, HAdV-D53 fiber-knob protein (Human adenovirus 53, UniProt E5RWD1); experiment: X-ray crystal structure of briefly soaked crystal; assay type: binding; details: 10 mM, very short soak; conserved apical pocket; beta anomer modelled
T3 construct: gene L5; trimer

[4] = target: T4, HAdV-D29 fiber-knob protein (Human adenovirus 29, UniProt E1CIQ3); experiment: X-ray crystal structure of soaked crystal; assay type: binding; details: 10 mM soak; conserved apical pocket; mixture of alpha and beta anomers
T4 construct: gene L5; trimer

[5] = target: HAdV-D15 fiber knob protein (human adenovirus D15); experiment: crystal structure; apo crystals of recombinant fiber knob protein; Pact Premier Screen, 18 °C, data at 100 K; trimer seen in the structure
[6] = target: HAdV-D24 fiber knob protein (human adenovirus D24); experiment: as above
[7] = target: HAdV-D53 fiber knob protein (human adenovirus D53); experiment: as above
[8] = target: HAdV-D29 fiber knob protein (human adenovirus D29); experiment: as above
[9] = target: HAdV-D30 fiber knob protein (human adenovirus D30); experiment: as above
[10] = target: HAdV-D32 fiber knob protein (human adenovirus D32); experiment: as above

CC(=O)N[C@H]1[C@H]([C@H](O)[C@H](O)CO)OC(O)(C(=O)O)C[C@@H]1O (mixture of isomers) [sialic acid]
X-ray crystal structure of soaked crystal [1]: four structures of HAdV-D25, D29, D30 and D53 in complex with sialic acid
X-ray crystal structure of soaked crystal [2]: four structures of HAdV-D25, D29, D30 and D53 in complex with sialic acid
X-ray crystal structure of briefly soaked crystal [3]: short soak allowed only two of four trimers in the asymmetric unit to bind β-sialic acid
X-ray crystal structure of soaked crystal [4]: four structures of HAdV-D25, D29, D30 and D53 in complex with sialic acid

HAdV-D15 fiber knob protein (domain or fragment)
stoichiometry N [5]: 3

HAdV-D24 fiber knob protein (domain or fragment)
stoichiometry N [6]: 3

HAdV-D53 fiber knob protein (domain or fragment)
stoichiometry N [7]: 3

HAdV-D29 fiber knob protein (domain or fragment)
stoichiometry N [8]: 3

HAdV-D30 fiber knob protein (domain or fragment)
stoichiometry N [9]: 3

HAdV-D32 fiber knob protein (domain or fragment)
stoichiometry N [10]: 3
